Measured values reported in patent US20170349667A1 (ARGEN X B V, published 2017).
Numbering of substitutions follows the chain as printed. Values belong to the binder of their own block, whether it stands above or below them.

How the values were obtained:
[1] = biological target: T1, Decoy c-Met (extracellular domain of human c-Met) (human, Glycoprotein. In cells it is cleaved by furin after residue 307 into disulfide-linked alpha and beta parts; written here as one chain.); test: binding ELISA, human c-Met (Decoy)
T1 construct: construct after Basilico et al. 2008; also called Decoy Met; monomeric Decoy Met
T1 chain: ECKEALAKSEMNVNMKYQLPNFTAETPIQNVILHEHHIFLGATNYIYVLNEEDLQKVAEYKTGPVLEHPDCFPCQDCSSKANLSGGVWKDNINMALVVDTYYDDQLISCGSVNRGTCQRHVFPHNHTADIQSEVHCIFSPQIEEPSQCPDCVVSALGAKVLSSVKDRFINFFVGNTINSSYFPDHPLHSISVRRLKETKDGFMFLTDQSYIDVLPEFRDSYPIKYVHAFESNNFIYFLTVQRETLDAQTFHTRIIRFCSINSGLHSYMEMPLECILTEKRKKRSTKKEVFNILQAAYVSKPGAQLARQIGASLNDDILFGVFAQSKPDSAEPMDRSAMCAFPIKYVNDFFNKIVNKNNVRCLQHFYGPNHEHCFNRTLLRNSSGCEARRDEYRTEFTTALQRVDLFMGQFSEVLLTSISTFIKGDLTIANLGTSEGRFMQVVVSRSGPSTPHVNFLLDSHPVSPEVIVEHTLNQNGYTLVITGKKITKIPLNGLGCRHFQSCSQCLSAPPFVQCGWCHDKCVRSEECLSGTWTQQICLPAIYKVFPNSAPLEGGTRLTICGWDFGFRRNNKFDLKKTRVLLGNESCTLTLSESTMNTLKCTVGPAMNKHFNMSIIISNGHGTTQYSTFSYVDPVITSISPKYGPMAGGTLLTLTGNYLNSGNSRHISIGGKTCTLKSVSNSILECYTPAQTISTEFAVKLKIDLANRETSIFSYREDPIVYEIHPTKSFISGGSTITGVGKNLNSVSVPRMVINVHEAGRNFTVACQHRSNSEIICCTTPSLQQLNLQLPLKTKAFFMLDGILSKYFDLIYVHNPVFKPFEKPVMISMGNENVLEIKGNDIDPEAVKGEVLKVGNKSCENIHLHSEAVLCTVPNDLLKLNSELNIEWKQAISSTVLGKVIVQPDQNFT

[2] = biological target: T2, human c-Met ECD (aa 25-932) with His tag (human, Glycoprotein. Furin cleavage after residue 307 gives disulfide-linked alpha and beta parts; written here as one chain.); test: ELISA: 200 ng of recombinant c-Met ECD protein coated, mAb 1 h, HRP goat anti-human antibody, TMB, OD 620 nm
T2 construct: also called human c-Met (WT)
T2 chain: T1 chain
Protocol: 200 ng of the different chimeric recombinant cMet proteins were immobilized on maxisorb plates overnight at 4° C. After washing with PBS, the plates were blocked with 0.1% casein for 2 h at RT, before the mAbs were added and allowed to bind to the c-Met for 1 h at RT. After washing, HRP-conjugated goat anti-human antibody (diluted 1/5000, Jackson Labs) was added and incubated for 1 h at RT before additional washing and addition of TMB. The optical density at 620 nm was read and the values were represented in a graph against the concentration of mAbs.

[3] = biological target: human c-Met on cells (MKN-45, A549, HPAF, BxPC3) (human, UniProt P08581 25-1390); test: cell-based or functional assay
[4] = biological target: llama-human c-Met chimera LS1 (aa1-98) (Llama glama; human); test: ELISA, mAb coated at 2 µg/ml, chimera added, streptavidin-HRP
Excerpt: (§1) An ELISA was run to investigate the binding of the mAbs to the different chimeras.

[5] = biological target: T3, llama-human c-Met chimera LS2 (aa1-199) (Llama glama; human); test: as above
T3 construct: as LS1
Excerpt: as §1

[6] = biological target: T4, llama-human c-Met chimera LS3 (aa1-287) (Llama glama; human); test: as above
T4 construct: as LS1
Excerpt: as §1

[7] = biological target: T5, llama-human c-Met chimera LS4 (aa1-348) (Llama glama; human); test: as above
T5 construct: as LS1
Excerpt: as §1

[8] = biological target: T6, llama-human c-Met chimera LS5 (aa1-448) (Llama glama; human); test: as above
T6 construct: as LS1
Excerpt: as §1

[9] = biological target: T7, llama-human c-Met chimera L18 (aa540-909) (human; Llama glama); test: as above
T7 construct: label probably LI8
Excerpt: as §1

[10] = biological target: T8, llama-human c-Met chimera L19 (aa572-909) (human; Llama glama); test: as above
T8 construct: label probably LI9
Excerpt: as §1

[11] = biological target: T9, llama-human c-Met chimera L110 (aa608-909) (human; Llama glama); test: as above
T9 construct: label probably LI10
Excerpt: as §1

[12] = biological target: T10, llama-human c-Met chimera L111 (aa634-909) (human; Llama glama); test: as above
T10 construct: label probably LI11
Excerpt: as §1

[13] = biological target: T11, recombinant dimeric c-Met (R&D systems, 358-MT/CF) (human, UniProt P08581 25-932); test: competition ELISA: recombinant dimeric c-Met captured on the plate, mAb dilutions, then 25 ng/ml N-terminally biotinylated HGF as competitor, strep-HRP, 620 nm; % competition against the controls
T11 construct: bought protein; also called recombinant c-Met; Fc-Met; not shown: C-terminal Fc portion (captured with anti-human Fc) and a His tag (captured with anti-His)
Protocol: Competition with N-terminally biotinylated HGF for binding to immobilized c-Met was performed using an ELISA-based competition assay. Five μg/ml mouse anti-His antibodies (Serotech) was immobilized on a maxisorb plate and, after blocking with 1% casein in PBS for 2 h, 100 ng/ml recombinant dimeric c-Met was added and incubated for 1 h at room temperature. After washing, dilutions of the antibodies were added and allowed to bind to the captured c-Met for 30 minutes, before 25 ng/ml N-terminally biotinylated HGF (R&D systems, 294-HGN/CF) was added. Biotinylated HGF was incubated at room temperature for 1 h before washing. Horseradish-conjugated streptavidin (strep-HRP) was added and incubated for an additional hour. TMB was added and the plate read at 620 nm. An isotype control (hIgG1λ) was included as a control as well as murine 5D5 antibody. Competition was expressed as percentage competition as compared to the controls (strep-HRP only or hIgG1λ) and plotted against the concentration of antibodies. An IC₅₀ was calculated using GraphPad Prism (Table 10). Antibodies 13E6 and 20A11 only displaced HGF partially (about 50%), which may be related to the epitope these two mAbs recognize on the c-Met.

[14] = biological target: T12, HMet (human c-Met, control of Table 18) (human); test: ELISA, mAb coated at 2 µg/ml, c-Met added, streptavidin-HRP
T12 chain: T1 chain
Excerpt: as §1

[15] = biological target: llama-human c-Met chimera LP6 (aa497-909) (human; Llama glama); test: ELISA, mAb coated at 2 µg/ml, chimera added, streptavidin-HRP
Excerpt: as §1

[16] = biological target: llama-human c-Met chimera LP7*(aa523-909), T737I (human; Llama glama); test: as above
Excerpt: as §1

EC50 [1]: 0.19 nM
EC50 (read off the curve) [2]: ~1000 pM
B1: 13E6 mAb (antibody, human IgG1, V domains shown)
VH: QVQLQESGGDLVQPGGSLRLSCAASGFTFDDYVMNWVRQAPGKGLEWISAINWNGGSTYYAESMKGRFTISRDNAKNTLYLQMYSLQSDDTAVYYCVKDTVVSGNGYWGQGTQVTVSS
VL: QSVLTQPPSVSGTLGKTVTISCAGTSSDIGDYNYVSWYQQLPGTAPKLLIYDVNKRASGIPDRFSGSKSGNTASLSISGLQSEDEADYYCASYRSRNDYAFGGGTKLTVL
notes: human IgG1 constant domains and human C lambda

EC50 [1]: 0.42 nM
B2: 12G4 mAb (antibody, human IgG1, V domains shown)
VH: QLQLVESGGGMAQPGGSLKLSCAASGFTFDDYAMTWVRQAPGKGLEWLSTISWNDINTYYAESMKDRFTISRDNAKNTLYLQMNSLESEDTAVYYCAKRRDNYYGTSGEYDYWGQGTQVTVSS
VL: B1 VL with V3A, D31N, D52E, A57P, R96S, D98N, Y99V, A100V
notes: llama VH/V lambda fused to human IgG1 constant domains and human C lambda

antibody-induced proliferation of BxPC3 cells (agonism) [3]: < 20 % of the proliferation obtained with 75 ng/ml HGF
EC50 [1]: 0.19 nM
B3: 38H10 mAb (antibody, human IgG1, V domains shown)
VH: EVQLVQPGVELRNPGASVKVSCKASGYIFTMNSIDWVRQAPGQGLEWMGRIDPEDGGTKYAQKFQGRVTFTADTSTSTAYVELNSLRSEDTAVYYCARVDDYYLGYDYWGQGTQVTVSS
VL: EIVMTQSPSSVTASAGEKVTINCKSSQSVLWRSNQKNYLAWYQQRLGQSPRLLISWASIRESGVPDRFSGSGSTTDFTLTISSFQPEDAAVYYCQQGYSFPYTFGSGTRLEIK
notes: human IgG1 constant domains and human C kappa

EC50 [4]: 0.031 µg/mL
EC50 [5]: 0.034 µg/mL
EC50 [6]: 0.05 µg/mL
EC50 [7]: 0.07 µg/mL
EC50 [8]: 0.05 µg/mL
EC50 [9]: > 0.04 µg/mL
EC50 [10]: > 0.04 µg/mL
EC50 [11]: > 0.04 µg/mL
EC50 [12]: 0.042 µg/mL
B4: 48A2 mAb (antibody, human IgG1, V domains shown)
VH: B3 VH
VL: DIVMTQTPTSVTASAGDKVTINCKSSQSVLFSSNQKNYLAWYQQRLGQSPRLLIYWASIRESGVPDRFSGSGSATDFTLTISNFQPEDAAVYYCQQGYSFPYSFGSGTRLEIR
notes: VL-shuffled variant of 38H10; human IgG1 and C kappa

EC50 [1]: 4.3 nM
B5: 20A11 mAb (antibody, human IgG1, V domains shown)
VH: QVQLVESGGGLVQPGGSLRLSCAASGFTFDDYAMSWVRQAPGKGLEWVSAISWNGSSTYYAESMKGRFTISRDNAKNTLYLQMNSLKSEDTAVYYCAKDLIGSHDYWGQGTQVTVSS
VL: QAVLTQPPSVSGTLGKTLTISCAGTSSDVGYGNYVSWYQQLPGTAPKLLIYAVSTRASGIPDRFSGSKSGNTASLTISGLQSEDEADYYCASYRSSNNYAFGAGTKLTVL
notes: as for B1

antibody-induced proliferation of BxPC3 cells (agonism) [3]: < 20 % of the proliferation obtained with 75 ng/ml HGF
EC50 [1]: 0.14 nM
IC50 (read off the curve) [13]: ~70 pM
B6: 40B8 mAb (antibody, human IgG1, V domains shown)
VH: EVQLVQPGAELRNPGASVKVSCKASGYTFTNYVIDWVRQAPGQGLEWMGRIDPENGGTRYAQKFQGRVTFTADTSTSTAYVELSNLRSEDTAVYYCARLEDYELAYDYWGQGTQVTVSS
VL: DIVMTQTPSSVTASAGEKVTINCKSSQSVLLSSNQKNYLAWYQQRLGQSPRLLIYWASTRESGVPDRFSGSGSTTDFTLTISSFQPEDAAVYYCQQGVSFPLTFGQGTKVELK
notes: as for B3

antibody-induced proliferation of BxPC3 cells (agonism) [3]: < 20 % of the proliferation obtained with 75 ng/ml HGF
EC50 [1]: 0.13 nM
EC50 [14]: 0.06 µg/mL
EC50 [4]: 0.068 µg/mL
EC50 [15]: 0.05 µg/mL
EC50 [16]: 0.055 µg/mL
EC50 [9]: 0.047 µg/mL
EC50 [10]: 0.047 µg/mL
EC50 [11]: 0.047 µg/mL
EC50 [12]: 0.045 µg/mL
EC50 (read off the curve) [2]: ~600 pM
B7: 36C4 mAb (antibody, human IgG1, V domains shown)
VH: QVQLVESGPGLVKPSQTLSLTCAVSGGSITTNYYYWSWIRQSPGKGLEWMGVIAYDGSTDYSPSLKSRTSISRDTSKNQFSLQLSSVTPEDTAVYYCARDVRVIATGWATANALDAWGQGTLVTVSS
VL: QSVLTQPPSVSGSPGKTVTISCAGTSSDVGYGNYVSWYQQLPGTAPKLLIFAVSYRASGIPDRFSGSKSGNTAFLTISGLQSEDEADYYCASYRSSNNAAVFGGGTHLTVL
notes: as for B1

IC50 (read off the curve) [13]: ~700 pM
B8: murine 5D5 antibody (antibody, V domains shown)
VH: QVQLQQSGPELVRPGASVKMSCRASGYTFTSYWLHWVKQRPGQGLEWIGMIDPSNSDTRFNPNFKDKATLNVDRSSNTAYMLLSSLTSADSAVYYCATYGSYVSPLDYWGQGTSVTVSS
VL: DIMMSQSPSSLTVSVGEKVTVSCKSSQSLLYTSSQKNYLAWYQQKPGQSPKLLIYWASTRESGVPDRFTGSGSGTDFTLTITSVKADDLAVYYCQQYYAYPWTFGGGTKLEIK
